Laboratory results published in the supplement of paper PMC9170038.

System: MS2 coat protein
Test: apparent KD of MS2 coat protein; designed switch direction (-1 OFF switch, 1 ON switch): 1; higher = weaker reporter binding
Procedure, shortened: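 Designed RNA switches sharing common flanks were transcribed on Illumina chips by stalled E. coli RNA polymerase. They were titrated with SNAP-549-labelled MS2 coat protein, from 0.7 or 1.5 nM doubling to 3 µM, in Tris-HCl pH 7.5 buffer with KCl, MgCl2, BSA, DTT, tRNA and Tween-20. Titrations ran without input, with 200 uM small-molecule ligand, or with an oligonucleotide input. The apparent KD of each design is the median over its clusters, after curve-fitting of normalised cluster fluorescence.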

[1] = input ligand: microRNA oligo, concentration not stated
[2] = Eterna round: R95, input ligand: FMN 200 uM
[3] = Eterna round: R95, input ligand: microRNA oligo, concentration not stated
[4] = Eterna round: R95, input ligand: none

| Sequence | apparent KD of MS2 coat protein (input ligand: FMN 200 uM) [nM] | apparent KD of MS2 coat protein [1] [nM] | apparent KD of MS2 coat protein (input ligand: none) [nM] | apparent KD of MS2 coat protein [2] [nM] | apparent KD of MS2 coat protein [3] [nM] | apparent KD of MS2 coat protein [4] [nM] |
| --- | --- | --- | --- | --- | --- | --- |
| GCUCGUACGAUGACCGACAUGAGGAUCACCCAUGUGUGUCGGUAGGAUAUCUAUAUUAAGGAUUUAGAGAAGGGCCCAACGAGC [SameState NG3 #19] (Eterna round: R96, puzzle: Same State NG 3) | 63.3 | 66.5 | 82 | – | – | – |
| AACCCACAUGAGGAUCACCCAUGUGUCUGAGGCACAGGAUAUCGACAGGCAAGACACCUGCGAGAAGGGUGACCUC [Same State 1 - Mod of Vinnie Diatater v.1] (puzzle: Same State 1) | – | – | – | 18.4 | 8.17 | 27.9 |
| GGAUCGUCGGCAGGAUAUGAGCAAGUGCAUCGAUCAGAAGGGUCGAGUCCUAGAAGGUAAAGCACAUGAGGAUCACCCAUGUAG [Eternabot solution 39] (Eterna round: R96, puzzle: Same State NG 1) | 40.7 | 63.7 | 96.3 | – | – | – |
| UUGCUCAUGUAAGGAUAUGCAGCCGUUUCGGCUGCAGAAGGUACUAUAAUACAUGAGGAUCACCCAUGUCUCUAUUAUUUAGUG [salish99_SSNG1_r04_924] (Eterna round: R96, puzzle: Same State NG 1) | 78.6 | 43.8 | 59.8 | – | – | – |
| UUAGAAUUGCAAGGAUAUCUAAUGUAGAUAGUAAGAGAAGGUGCUUGAUAGUUACAUGAGGAUCACCCAUGUAUUUGGGUUUAU [JR_SSNG1_Sub057] (Eterna round: R96, puzzle: Same State NG 1) | – | 345 | – | – | – | – |
| GAGUGGCAGUUAGGAUAUGUAGUGAUAAUGAUAACAGAAGGAACAGACAUGAGGAUCACCCAUGUAGGACUAAUCCAGAGAGAG [Parity 35 - Jieux - Same State NG 1] (Eterna round: R96, puzzle: Same State NG 1) | 26.2 | 25.7 | 34.2 | – | – | – |
| ACAAGCUUUUUGCUCAUCUUAUGUCCGAAACAUGAGGAUCACCCAUGUGUAGAUUAUGUGUUGUUUUUGAUACGAGA [JR_SHM208A_Sub065] (puzzle: Sensor for hsa-mir-208a) | – | – | – | 68.1 | 28.4 | 80.3 |
| GGCCAGAGUCAAGGAUAUGCUACCGUUUCGGUAGCAGAAGGUGAUCACAUGAGGAUCACCCAUGUAUACUGCGAGAGUAGGGCC [JL SSNG1 3.66] (Eterna round: R96, puzzle: Same State NG 1) | 94.5 | 23.6 | 197 | – | – | – |
| GCGAGCGUACUUGCAGACAUGAGGAUCACCCAUGUAACUGGACAGGAUAUGGUACCGUUUCGGUACCAGAAGGGUCCAUAUGUC [JL SSNG3 3.54] (Eterna round: R96, puzzle: Same State NG 3) | 64.4 | 115 | 130 | – | – | – |
| AUUAAUUAAUUAAUACAUGAGGAUCACCCAUGUAAUAAGAUCAAGGAUAUCAGCUCGUUUAGAGCUGAGAAGGUGAUCACAUGU [SSNG3/17-B3] (Eterna round: R96, puzzle: Same State NG 3) | – | 246 | – | – | – | – |
| GUGCUCGUGUGAGGAUAUGCUGCCGGGUCGGCUGCAGAAGGUACUAUUAUACAUGAGGAUCACCCAUGUCGCUUUUCUCCGGUG [salish99_SSNG1_r04_918] (Eterna round: R96, puzzle: Same State NG 1) | – | 34.1 | – | – | – | – |
| ACAUGAGACACAGGAUAUCAUGUACCUACAUGUGACAUGAGGAUCACCCAUGUGGUAAGUAUGACUGAGAAGGGUGAGAUAUGU [Equivalance 89 - Jieux - Same State NG 2] (Eterna round: R96, puzzle: Same State NG 2) | 369 | 394 | 962 | – | – | – |
| UGGUACAUGGGAGGAUAUCAUGUAGAAACAUGAGGAUCACCCAUGUAGAUGGCAGCUUUGCUGAAUGAGAAGGCCCAUGUACCU [JL SSNG1 3.58] (Eterna round: R96, puzzle: Same State NG 2) | 15.6 | 18.9 | 22.8 | – | – | – |
